Results taken from US20190248902A1 (published 2019).
Changes are numbered by the printed parent chain.

T1: human ASGR-1 (wild type) (human, UniProt P07306 1-291)
T1 construct: also called wt ASGR1; huASGR-1
T1 sequence: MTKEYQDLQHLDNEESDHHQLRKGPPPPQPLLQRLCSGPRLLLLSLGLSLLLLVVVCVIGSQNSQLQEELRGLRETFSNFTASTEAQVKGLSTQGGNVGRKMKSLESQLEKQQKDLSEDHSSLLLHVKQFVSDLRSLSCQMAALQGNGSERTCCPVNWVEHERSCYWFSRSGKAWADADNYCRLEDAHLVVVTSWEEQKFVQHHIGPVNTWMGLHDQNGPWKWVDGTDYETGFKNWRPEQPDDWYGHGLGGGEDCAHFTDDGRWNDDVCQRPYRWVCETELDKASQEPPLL

T2: Cyno ASGR-1 (cynomolgus monkey, UniProt P07306 1-291 (human entry))
T2 construct: Expressed on HEK 293 cells or as membrane prep on beads; cDNA from XP_005582755; also called cynomologus monkey ASGR-1
T2 chain: T1 sequence with R22G, P30S, Q33R, S64A, E68R, F77L, T152A

T3: Pig ASGR-1 (pig)
T3 construct: Expressed on HEK 293 cells or as membrane prep on beads; cDNA GenBank NM_001244458
T3 chain: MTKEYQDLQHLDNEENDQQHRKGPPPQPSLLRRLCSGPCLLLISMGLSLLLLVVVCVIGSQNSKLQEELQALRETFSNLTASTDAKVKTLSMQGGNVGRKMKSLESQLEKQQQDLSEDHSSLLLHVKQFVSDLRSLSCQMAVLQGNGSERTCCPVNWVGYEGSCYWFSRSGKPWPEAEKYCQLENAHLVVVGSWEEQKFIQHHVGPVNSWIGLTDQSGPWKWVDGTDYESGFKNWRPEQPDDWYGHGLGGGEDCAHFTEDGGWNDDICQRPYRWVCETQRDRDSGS

T4: Mouse ASGR-1 (mouse, UniProt P34927 1-284)
T4 construct: Expressed on HEK 293 cells or as membrane prep on beads; cDNA GenBank BC022106.1; also called muASGR-1; mASGR-1
T4 sequence: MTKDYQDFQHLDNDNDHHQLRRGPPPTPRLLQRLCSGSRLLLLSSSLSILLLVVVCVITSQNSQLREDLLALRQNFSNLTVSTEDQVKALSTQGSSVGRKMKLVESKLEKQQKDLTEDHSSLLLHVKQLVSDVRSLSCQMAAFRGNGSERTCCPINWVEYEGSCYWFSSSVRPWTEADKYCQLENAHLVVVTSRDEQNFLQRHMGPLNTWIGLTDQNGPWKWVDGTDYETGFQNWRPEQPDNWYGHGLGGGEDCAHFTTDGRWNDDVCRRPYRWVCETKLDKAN

B1: 218G4 (antibody, V domains shown)
VH: QVQLVESGGGVVQPGRSLRLSCAASGFTFSSYGLHWVRQAPGKGLEWVAVIWYDGSNKYYADSVKGRFTISRDNSKNTLYLQMNSLRVEDTAVYYCANWYYYYYGMDVWGQGTTVTVSS
VL: QSVLTQPPSVSAAPGQKVTISCSGSSSNIGNNYVSWYQQLPGTAPKLLLYDSNKRPSGIPARFSGSKSGTSATLGITGLQTGDEADYYCGTWDSSLNTVVFGGGTKLTVL
notes: mAb
B2: 176H4 (antibody, V domains shown)
VH: QVQLVESGGGVVQPGRSLRLSCAASGFTFSSYGMHWVRQAPGKGLEWVAIIWYDGSYKYYADSVKGRFTISRDNSKNTLYLQMSSLRAEDTAVYYCARDAHDFWSGYFAYWGQGALVTVSS
VL: DIVMTQTPLSLSVTPGQPASISCKSSQSLLHGDGKTYLYWYLQKPGQPPQLLIYEVSNRFSGVPDRFSGSGSGTDFTLKISRVEAEDVGIYYCMQSIQIPWTFGQGTRVEIK
notes: mAb
B3: 194C10 (antibody, V domains shown)
VH: QVQLQQWGAGLLKPSETLSLTCAVSGGSFRYYYWSWIRQPPGKGLEWFGEINHSGSTNYNPSLKSRVTISIDTSKNQFSLKLRSVTAADTAVYYCARDYGAFDIWGQGTMVTVSS
VL: EIVLTQSPGTLSLSPGERATLSCRASPSVNSGYLAWYQQKPGQTPRLLIFGASSRATGIPDRFSASGSGADFTLTISRLEPEDFAVYFCQQYESSPWTFGQGTKVEIK
notes: mAb
B4: 75G3 (antibody, V domains shown)
VH: QVQLQQWGAGLLKPSETLSLTCAVYGGSLSGSYWSWIRQPPGKGLEWIGEINLSGSTNYNPSLKSRVTISVDTSKSQFSLTLRSVTAADTAVYYCARDYGGLDYWGQGTLVTVSS
VL: EIVLTQSPGTLSLSPGERATLSCRARQNVDSSYLAWYQQKPGQAPRLLIYGASSRATGIPDRFSGSGSGTDFTLTISRLEPEDFAVFYCQQYERSPWTFGQGTKVEIK
notes: mAb
B5: 197G3 (antibody, V domains shown)
VH: QVQLVESGGGVVQPGRSLRLSCVASGFTFSSHGMHWVRQAPGKGLEWVAVIWYDGSNKNYADSVKGRFTISRDNSKNTLYLQMNSLRAEDTAVYYCARDPSVGYDGMDVWGQGTTVTVSS
VL: DIQMTQSPSSLSASVGDRVTITCRASQGIGNHLAWFQQKPGKAPKSLIYAASSLQSGVPSKFSGSRSGTDFSLTISSLQPEDFATYYCQQYSNYPVTFGPGTKVDIK
notes: mAb
B6: 193E7 (antibody, V domains shown)
VH: QVQLQQWGAGLLKPSETLSLTCAVYGGSFSGYFWTWIRQPPGKGLEWIGEINHSGSTNYNPSLKSRVTISVDTSKNQFSLKLSSVTAADTAVYYCARDYGADYWGQGTLVAVSA
VL: DIQMTQSPSSLSASVGDRVTITCRASQGIRNDLGWYQQKPGKAPKRLIYSASSLQRGVPSRFSGSGSGTEFTLTISSLQPEDFATYYCLQHKRYPLTFGGGTKVEIK
notes: mAb
B7: 4B1 (antibody, V domains shown)
VH: QVQLQESGPGLVKPSETLSLTCSVSGDSISSYSWSWIRQPAGKGLEWIGRIYTSGSTNYIPSLKSRITMSVDTSKKQFSLKLSSVTAADTAVYYCARDLKSSGCLFFDYWGQGTLVTVSS
VL: DIQMTQSPSSLSASVGDRVTITCRASHTIRTYLNWYQQKPGKAPKLLIYAASSLQSGVPSRINGSGSGTDFTLTITNLQPEDFATYYCQQSYNISFTFGPGTKVDIK
notes: Tested as hybridoma supernatant at normalized concentration
B8: 12D2 (antibody, V domains shown)
VH: EVQLVESGGGLVKPGGSLRLSCAASGFTFSSYSMNWVRQAPGKGLEWVSSISSSSSYIYYADSVKGRFTISRDNAKNSLYLQMNSLRAEDTAVYYCARLGDYWGQGTLVAVSS
VL: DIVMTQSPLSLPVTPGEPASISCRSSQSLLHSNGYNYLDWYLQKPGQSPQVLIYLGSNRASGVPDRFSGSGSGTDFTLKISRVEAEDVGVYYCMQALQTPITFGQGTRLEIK
notes: as for B7
B9: 184E7 (antibody, V domains shown)
VH: QVQLVQSGAEVKTPGASVKVSCRASGYTFTSYNMHWVRQVPGQGLEWMGWINPNNGGSNYTQKFQGRVTMTRDTSISTAYMELSRLRSDDTAVYYCARKFGDWGQGTLVTVSS
VL: DIQMTQSPSSRSASIGERVTITCRASQGISNYLAWIQQKPGTAPKSLIYAASSLQSGVSSRFSGSGFGTDFTITISSVQREDFATYYCQQYNGYPFTFGHGTKVDIK
notes: as for B7
B10: 4H6 (antibody, V domains shown)
VH: QVQLVQSGAEVKKPGASVKVSCKASGYTFTDYYLHWVRQAPGQGLEWMGWIHPNSGGTNYAQKFQGRVTMTRDTSISTAYMGLSSLRSDDTAVYYCARDGTSSFDYWGQGTLVTVSS
VL: DIQMTQSPSSVSASVGDRVTITCRASQGISRWLAWYQQKPGKAPKLLIYGASSLQSGVPSRFSGSGSGTDFTLTISSLQPEDFAIYYCQQANSFPFTFGPGTKVDIK
notes: as for B7
B11: 72G9 (antibody, V domains shown)
VH: EVQLVESGGGLVKPGGSLRLSCAASGFTFSSYSMNWVRQAPGKGLEWVSSISGSSSYIYYADSVKGRFTISRDNAKNSLYLQMNSLRAEDTAVYFCARGGSRGFDPWGQGTLVTVSS
VL: B10 VL with V11L, G28S, S30T, R31S, W32Y, A34N, G50T, I85T, A91S, N92H
notes: as for B7
B12: 22G5 (antibody, V domains shown)
VH: EVQLLESGGGLVQPGGSLRLSCAASGFTFSSYAMNWVRQAPGMGLEWVSVISRSGGYTYYADSVKGRFTISRDNSKNTLYLQMNSLRAEDTAVYYCASRLAVAGSEAFDIWGQGTLVTVSS
VL: DIQMTQSPSSLSASVGDRVTITCRASQNISSYLNWYQQKQGKAPKLLIYAASSLQNGVPSRFSGRGSGTDFTLTISSLQPEDFATYYCQQSYRTPLFTFGPGTKVDFK
notes: as for B7
B13: 193E7 (antibody, V domains shown)
VH: B6 VH
VL: B6 VL
notes: as for B7

biological target: T1, human ASGR-1 (wild type); test: flow cytometry, CHO-S:huASGR-1 cells, 11-point titration
In short: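 CHO-S cells stably expressing human ASGR-1 were multiplexed with dye-labelled parental cells and mouse ASGR-1 cells (30K cells/well). Antibodies were run as an 11-point 1:2 series from 100 nM for 30 min at 4°C, with CaCl2 (1 mM) washes, anti-human IgG-APC detection and PI live gating. EC50 from four-parameter fits of duplicate median signals.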

EC50	Binder
2.2 nM	B1
1 nM	B2
0.56 nM	B3
1 nM	B4
0.25 nM	B5
0.13 nM	B6

Biological target: T2, Cyno ASGR-1
Test: FACS on transfected HEK 293 cells or membrane preps on beads; Y = signal at least 2x irrelevant IgG
Procedure: (§1) Human ASGR-1-specific, ligand competing antibody samples were tested for binding to ASGR-1 from other species (cynomologus monkey ASGR-1, mouse ASGR-1, rat ASGR-1, dog ASGR-1, and pig ASGR-1) as well as to human ASGR-2 in FACS binding assays at normalized antibody concentrations. For cell-based assays, HEK 293 cells expressing the appropriate antigen of interest were mixed with antibody sample or controls, incubated for 1 hour at 4° C., and then washed twice. Cells with bound antibody were then incubated with Alexa Fluor® 647 IgG Fc fragment-specific detection antibody and 7-AAD viability stain for 15 minutes at 4° C., washed once and resuspended in FACS buffer. Samples were analyzed using a BD Accuri™ Flow Cytometer and an Intellicyt HyperCyt Autosampler. As a negative control, supernatants and controls were also screened against HEK 293 cells transfected with empty parental vector. […] For membrane-prep binding assays, ASGR-1 species specific membrane preps were used to coat LumAvidin® microspheres (beads) and tested for binding to selected hybridoma supernatants or controls. Briefly, ASGR-1 species specific membrane preps were incubated with streptavidin-coated LumAvidin® beads for 45 minutes in the dark at room temperature and washed twice. Beads were resuspeneded in FACS buffer containing Stabilguard®. Antigen-bound beads were then incubated with normalized antibody sample for 1 hour in the dark at room temperature, washed twice, incubated with Alexa Fluor® 488 IgG Fc fragment-specific detection antibody for 15 minutes in the dark at room temperature, washed once and finally resuspended in FACS buffer. Samples were analyzed using an Intellicyt iQue™ Screener Platform. FACS buffer supplemented with 1 mM Calcium Chloride was used in all steps. As a negative control, supernatants and controls were also screened against a non-ASGR-1 antigen membrane prep coated on the LumAvidin® beads.

binding result	Binder
binds	B7
binds	B8
binds	B9
binds	B10
binds	B11
binds	B12
binds	B13

Biological target: T3, Pig ASGR-1
Test: as above
Procedure: as §1

binding result	Binder
binds	B7
binds	B8
binds	B9
binds	B10
binds	B11

biological target: T4, Mouse ASGR-1; test: FACS on transfected HEK 293 cells or membrane preps on beads; binding = signal at least 2x irrelevant IgG
Procedure: as §1

binding result	Binder
no binding	B12
no binding	B13
